This is an account of results in patent US20040014149A1 (RIGEL PHARMACEUTICALS, published 2004).

Ends that are not written are not given here.

The target of assay [1] is T1, human thioredoxin-like 32 kDa protein (hTXNL) (human, UniProt O43396 1-289, limits assumed).
T1 sequence: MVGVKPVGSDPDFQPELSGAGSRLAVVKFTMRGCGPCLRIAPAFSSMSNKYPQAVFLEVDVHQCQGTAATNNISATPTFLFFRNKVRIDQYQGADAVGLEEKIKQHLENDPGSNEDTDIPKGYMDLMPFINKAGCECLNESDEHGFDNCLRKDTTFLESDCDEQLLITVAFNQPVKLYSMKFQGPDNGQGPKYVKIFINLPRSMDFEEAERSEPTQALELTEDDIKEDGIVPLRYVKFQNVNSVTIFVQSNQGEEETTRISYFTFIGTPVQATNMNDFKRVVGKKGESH
Briefly: cell-based or functional assay.

In assay [2] the target is T1, human thioredoxin-like 32 kDa protein …. Briefly: cell-based or functional assay. This is another data set of the same source.

PERCYMRMPPQSLADAQIYS (peptide, not shown: large carriers, also: expressed as BFP-linker-peptide fusion, construct not described) [peptide DR15wt]: in assay [1], the “endogenous epsilon inhibition ratio (TAQMAN quantitative PCR)” value is 1.56 and the “reporter ratio (original library clone, +IL-4/+Dox to +IL-4/-Dox GFP)” value was found to be 1.43. Also, the “Reporter Ratio (A5T4 germline epsilon promoter GFP reporter line)” value in assay [2] is 1.69.
In the case of PERCYMRMPPQSLADAAAYS (peptide, not shown: large carriers) [peptide DR15QI], the “Reporter Ratio (A5T4 germline epsilon promoter GFP reporter line)” value in assay [2] is 1.35.
Same read-out and setting: in the case of PERCAARMPPQSLADAQIYS (peptide, not shown: large carriers) [peptide DR15YM] it was 1.22.
Still for that read-out and setting: in the case of AARCYMRMPPQSLADAQIYS (peptide, not shown: large carriers) [peptide DR15PE] it was 2.22.
